The data set deals with Thrombin (UniProt P00734;P00734 328-363;364-622). Nature of the data set: ion current rectification nanopipette aptasensor.

B1: N protein aptamer (ssDNA)
DNA: GCTGGATGTCGCTTACGACAATATTCCTTAGGGGCACCGCTACATTGACACATCCAGC
modifications: 5'-NH2
In the case of B1, the binding result is recorded as “no binding”.

For the origin of these results see article PMC9700395.
